The values that follow come from the supplement of paper PMC12042874.

A short description of the data set: amyloid nucleation score (Sup35N fusion, yeast selection) (log enrichment); library NNK3; higher = more nucleation; inactive = no reads after selection. The gist of the method: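 Sup35N was fused to peptides of 20 random codons and expressed in psi-negative yeast, which were induced with 100 μM copper sulfate for 24 hours and then grown on medium lacking adenine and uracil for 7 days at 30°C. Plasmid inserts from input and output were sequenced on Illumina. The nucleation score is the DiMSum log enrichment of output over input reads, centred on the mode score of non-aggregating sequences. Sequences with under 100 input reads were left out, and random libraries had three technical output replicates.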

± gives the uncertainty stated by the source.

Regarding FEIECNNGSGASTRLTSRIN, the amyloid nucleation score entry was “inactive”.
For CKKGRLVGRSRCLVCWMCCM the value was -0.155 ± 0.96; for RVYGLFTLQYWYLNLYTKGR, 0.548 ± 0.36; for NMRRRYC, “inactive”.
For TDYMLVWSQYRLIHFCNLVV the value was “inactive”; for GPAVWPKWVSLAKWYPSEI, “inactive”; for VSYISDQGC, “inactive”.
The entry for IRTTSPHHDSLSNEGVIDML is “inactive”.
For MSVRG, the amyloid nucleation score result was “inactive”.
Turning to CFCYSLDSLLQVGNNS, the amyloid nucleation score result was “inactive”.
For the substance NLIFRFPLAIKWSLFSLDCL, the amyloid nucleation score entry is “inactive”.
SIVRIFIIN had an amyloid nucleation score of 2.27 ± 0.056.
The entry for DLYCMPLAAVLFGGGC is “inactive”.
For FWHNSG the value was “inactive”.
The entry for SFRSGLLSGRKWGHPVSSQE is “inactive”; for DSQLFKICGLVCTTYVALCF it is -0.732 ± 0.59; for LYIPMQLQCCAIMEGYAILF it is 1.6 ± 0.078.
Consider PGDNIYILMGVYKGILWWAE, for which the amyloid nucleation score result is “inactive”.
In the case of FTSKKLLCLDKPFNIGDCGY, the amyloid nucleation score result is “inactive”.
On to FSFNAG, for which the amyloid nucleation score entry was “inactive”.
For FLTAKKSEFERTLEFRLWWC the value was “inactive”; for YDRPSVVRTWRTREKAVSGP, “inactive”; for CINVFMQEPPPINIRWNCRE, 2.54 ± 0.061.
As to IIISSFSDWCYFGRDDSCRM, the amyloid nucleation score is -0.36 ± 0.63.
Take RYHNFLYGLGNPMG: the amyloid nucleation score entry is “inactive”.
The entry for FSYLLYRRNDTCPQALRLRR is “inactive”; for SSRSRTRWASNFLAHAYGRF it is “inactive”; for GRSMLMLRTYNM it is -0.056 ± 0.78.
With DLGHQMVVRRHVLFLICCCN, the amyloid nucleation score entry was “inactive”.
FAGCTVGLTNYKRLWICVN: the amyloid nucleation score was 0.092 ± 0.72.
As for NAGYSNRCQIGYICSVRACK, the amyloid nucleation score result is “inactive”.
For the substance GSSRPVVSLTSDLRRCVGKD, the amyloid nucleation score result was “inactive”.
In the case of VIRSNYWHTLNWLQQNKSRG, the amyloid nucleation score result was “inactive”.
The entry for CHWNYTKIRHFYEVVGDQTG is “inactive”.
For the substance LSPSVFVNSNRLMTESSRGF, the amyloid nucleation score result was “inactive”.
For SRIIVRN the value was “inactive”; for DQEVC, “inactive”; for NTPRRLHSYLFSTLWY, “inactive”.
As for WCQFSDLSVAFK, the amyloid nucleation score entry is “inactive”.
For VGHPFNCSLDCF the value was “inactive”.
For KYDSY the value was “inactive”.
Regarding YRAKNSDRCPGDAYTYFVLR, the amyloid nucleation score entry was “inactive”.
Consider LKISALTIESMF, for which the amyloid nucleation score entry is “inactive”.
With SILYMVIASWYLY, the amyloid nucleation score entry was “inactive”.
For WQYLNFS the value was 0.75 ± 0.29; for LWGYGL, “inactive”.
On to GRWFVCVQSAWCDCGGDVCV, for which the amyloid nucleation score result was “inactive”.
The entry for NNRCNKFPGYTL is “inactive”; for LSLLSFNGIGHFLIVRKRYK it is “inactive”; for FKRLLARV it is -0.362 ± 0.98.
In the case of VTSAPNKCFNLFYVNWDHNN, the amyloid nucleation score was 0.784 ± 0.17.
For NTNRSLENDCIRALRQCGLV the value was “inactive”; for NVMDCSYITNVNIYSHHWDY, 2.1 ± 0.055; for MRNLGGLCIALPEVVEGTDF, “inactive”.
For IDRLLLNTKYIVQGLPNWTK the value was “inactive”.
For STFGVVMTSSSD the value was “inactive”; for SMNFSSWWRLCCDEGSGSYT, 0.671 ± 0.19; for FSIPCDFDDNFATQELS, “inactive”.
Substance LVYTVNLWNALIFHLD gave an amyloid nucleation score of 0.527 ± 0.22.
On to GGENLTFLRSAFCSNWA, for which the amyloid nucleation score result was “inactive”.
NCSELGSS: the amyloid nucleation score result was “inactive”.
The figure for RAGVVVFIRRLRRLMGTLGA is -0.005 ± 1.1.
For PTNWLVFYFCSGYAFNSFED the value was 3.31 ± 0.074.
DVDFPSFAGFMVTISIGIFV: the amyloid nucleation score entry was “inactive”.
Turning to DYTMVKLLIGLSGIRTPVVR, the amyloid nucleation score entry is “inactive”.
For DSVMVYIRFIAMSSPQKG the value was “inactive”; for TFKMQWECVIA, 0.657 ± 0.16; for HRFAGTKVALYGVKLGGARY, “inactive”.
The entry for TLTGVPAGSTT is “inactive”; for TLFGFCAREIVRMRNDHIQV it is “inactive”; for FQNDDVTS it is “inactive”.
Take FNDLSAVFYLQGLKLDL: the amyloid nucleation score entry was “inactive”.
For the substance TVGSRGSTPHCTLLLVSWSL, the amyloid nucleation score entry is “inactive”.
For LLFQSIVVY the value was “inactive”.
For FAGDLRDCWFLSFV, the amyloid nucleation score entry is “inactive”.
As for QKVVFW, the amyloid nucleation score entry was “inactive”.
Take TQMILWVM: the amyloid nucleation score entry is “inactive”.
Consider LFLRPNANRYVH, for which the amyloid nucleation score result was “inactive”.
For the substance VVGFMYYARFLPSDFVSINA, the amyloid nucleation score result is “inactive”.
The entry for RNNVPGVEYVLDYLFMLKVM is “inactive”; for HQSNFGDMSLVSNGSFRKAK it is “inactive”.
The entry for RTEKMGRDTKRYCVPHINFG is “inactive”; for TNTPIMKCELHTRDFVKVIS it is “inactive”.
Consider IWKLHITLLSYRSILHVLHM, for which the amyloid nucleation score result was “inactive”.
With LFGFLYFVV, the amyloid nucleation score was -0.564 ± 0.82.
For TYYADTLAFNSTS, the amyloid nucleation score result was “inactive”.
With VYVVRANRFMRSPQLRVLFS, the amyloid nucleation score result was “inactive”.
The entry for NNFTVAWFYRHGSLSISFGY is “inactive”; for TDSNYNFNC it is 0.214 ± 0.34.
The entry for NKVISSSLTFRFIKVQFIYH is “inactive”.
For the substance VKLMASEHLSCIGRI, the amyloid nucleation score entry is “inactive”.
For AIVWPSYFIWFYSNESRKDR the value was “inactive”.
For PNWNYSSLGQTSGQSSRHTS the value was “inactive”; for LCPVMLDRRSARSKGPALIL, “inactive”.
As for NLSSSDTRSVCASWVTR, the amyloid nucleation score entry is “inactive”.
The entry for DDRVVPVLYQTCSAVRR is “inactive”; for FYHDMIWTILLDYTRRFHKL it is “inactive”; for STTFDLARWASVKSVHFCYF it is “inactive”.
The entry for GDNICQNVFTDGKVDAFFLT is “inactive”; for KDGFYNVPLVEPHMRSSSTP it is “inactive”.
On to SWIVLYRMDS, for which the amyloid nucleation score result was “inactive”.
The entry for RIYLA is “inactive”.
For YLLKCYVMSDRSMSTCVQLE the value was “inactive”.
For the substance RLSNVSTMGGMRIPDLLEM, the amyloid nucleation score result is “inactive”.
The figure for VRKKCLDPDGFLSRLGPAFD is -0.429 ± 0.91; for GSWDVKLSF it is “inactive”.
The entry for CDHYRISWNLKWLVVRMYY is “inactive”; for MVNWPDGRILGSLRNWRHQD it is “inactive”.
The figure for GLAASSTNAFTRHVLNRV is 1.51 ± 0.13.
Take VHFLSTVGMKLTALYKGVVM: the amyloid nucleation score entry is “inactive”.
For the substance GPPCDFCIRVSVCYTGSVNW, the amyloid nucleation score was found to be 0.466 ± 0.39.
Turning to IWETVRIFCFINHAINCGVP, the amyloid nucleation score was 2.35 ± 0.079.
As to ELIKCFFYYNDVGV, the amyloid nucleation score result was “inactive”.
FFSLLT: the amyloid nucleation score result is “inactive”.
Regarding GRNYFENVWIHRLYSSCLVM, the amyloid nucleation score was 1.94 ± 0.068.
The entry for RGKYFGCYLSVYSHL is “inactive”; for YNDCNIN it is “inactive”.
VESYPVGLY gave an amyloid nucleation score of 1.56 ± 0.068.
On to ICPWDIQRINMLMGRVDWLR, for which the amyloid nucleation score result was “inactive”.
The entry for WMELTVIQCWMAA is “inactive”.
For VCEGMKMAALRYREERC the value was “inactive”.
Substance NLLSAVY returned an amyloid nucleation score of 0.787 ± 0.28.
On to EWKVLYFFGDAFRLFNRWSG, for which the amyloid nucleation score result is “inactive”.
With ATFYSFLRFKQINNRNNEAF, the amyloid nucleation score entry was “inactive”.
LACSSSCILSPVVGIGFSWN returned an amyloid nucleation score of 1.89 ± 0.055.
The figure for VNTFNFWCI is 2.7 ± 0.081; for LDKVSNSCTPIWPFVIET it is “inactive”; for LWEDFLMVKSVVMN it is “inactive”.
For the substance LSFSLWNLEYIEISRRNLTL, the amyloid nucleation score came to 1.2 ± 0.097.
For FLIKNMY the value was “inactive”; for VLVNPILLPMPLQ, “inactive”.
As for ISRLLPPWNNRHIFSFVYLS, the amyloid nucleation score result is “inactive”.
As for KRVKWNCRGLDDSMLFFWVV, the amyloid nucleation score result is “inactive”.
